Read-outs that look alike come from different tables or passages of the source.

The results in this text go back to article PMC6340302 (ACS chemical biology, 2018).

The target in test [1] is dbOphM, the catalytic component of dbOphMA (Met1-Asn377), which lacks the precursor peptide (Dendrothele bispora CBS 962.96). Put plainly: crystal structure.
Test [2] addresses T1, dbOphMA (Dendrothele bispora, UniProt A0A4S8L4Q5).
T1 sequence (A0A4S8L4Q5 1-377): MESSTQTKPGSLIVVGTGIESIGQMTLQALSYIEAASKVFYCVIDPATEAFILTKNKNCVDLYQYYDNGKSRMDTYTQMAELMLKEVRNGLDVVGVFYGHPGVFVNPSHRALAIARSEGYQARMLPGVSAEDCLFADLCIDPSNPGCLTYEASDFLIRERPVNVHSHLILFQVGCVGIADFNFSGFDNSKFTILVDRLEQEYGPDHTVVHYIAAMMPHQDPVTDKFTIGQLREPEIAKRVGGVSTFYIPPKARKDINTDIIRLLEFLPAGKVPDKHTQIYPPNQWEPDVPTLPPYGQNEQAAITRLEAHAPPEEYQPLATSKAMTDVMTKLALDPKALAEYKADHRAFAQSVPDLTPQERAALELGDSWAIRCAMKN
Put plainly: microscale thermophoresis. In kind it is binding. (In MST a laser heats a spot of the sample, and binding alters the fluorescence response.)

Test [3] has as its target dbOphMA, methyltransferase-precursor fusion protein from Dendrothele bispora CBS 962.96, full-length fusion (residues Met1-Ala417) (Dendrothele bispora CBS 962.96).
For test [4] the target is unchanged. Put plainly: crystal structure.
Test [5] addresses T1, dbOphMA. The experiment in a line: microscale thermophoresis. In kind it is binding. This is another data set of the same source.

As for “dbOphM, the catalytic component of dbOphMA (Met1-Asn377), which lacks the precursor peptide (domain or fragment)”, in test [1], the stoichiometry N (usually a count of units in the complex or per binding partner) is 2. In the case of `Nc1ncnc2c1ncn2[C@@H]1O[C@H](CSCC[C@H](N)C(=O)O)[C@@H](O)[C@H]1O` [SAH, S-adenosyl homocysteine], binding in test [2] was put at a Kd of 6.88 µM. This lies in the single-digit micromolar range. For “dbOphMA, methyltransferase-precursor fusion protein from Dendrothele bispora CBS 962.96, full-length fusion (residues Met1-Ala417) (enzyme)”, the stoichiometry N in test [3] and in test [4] was 2 in each case. Consider `C[S@@+](CC[C@H](N)C(=O)O)C[C@H]1O[C@@H](n2cnc3c(N)ncnc32)[C@H](O)[C@@H]1O` [SAM, S-adenosyl methionine], for which, in test [5], binding was characterised by a dissociation constant (Kd) of 80.7 µM.
